Where a chain is given by its changes, count along the chain named. Where “and” joins values, the source holds several entries; their conditions need not be identical. Equal entries are not always repeated. Each block holds one binder with its values, some of them ahead of it.
What was measured:
Mouse serum albumin [1] = target: T1, Mouse serum albumin (mouse, UniProt P07724 25-608); test: SPR, BIAcore 3000, serum albumin coupled to CM5 chip;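 note: Cross-reactivity of anti-serum albumin domain antibodies measured against human, cynomolgus monkey, rat and mouse serum albumin, binding kinetics giving Kd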
T1 construct: mature; bought purified protein; coupled to CM5 BIAcore chip; also called mouse SA; MSA
Procedure: (§1) Cross-reactivity of the AlbudAbs™ (ie, anti-serum albumin dAbs) was determined against human, Cynomolgus monkey (cyno), rat and mouse serum albumin using surface plasmon resonance (SPR). In this case, Biacore™ was used. Biacore™ 2000/3000 was used for the supernatant screens and determination of binding kinetic all of dAbs described herein. Biacore™ T100 was used for the determination of cross-reactivity of lead Vk and VH Albudabs to a wider range of species' SAs (12 in total). Protein samples were run on the T100 BIAcore as described for the BIAcore2000/3000 experiments. […] Where appropriate, a kinetic Langmuir 1:1 fitting model was used.

Human serum albumin [2] = target: T2, Human serum albumin (human, UniProt P02768 25-609); test: as above
T2 construct: coupled to CM5 BIAcore chip; also called human SA; HSA
Procedure: as §1

Rat serum albumin [3] = target: T3, Rat serum albumin (rat, UniProt P02770 25-608); test: as above
T3 construct: coupled to CM5 BIAcore chip; also called rat SA; RSA
Procedure: as §1

Ferret serum albumin = Ferret serum albumin (ferret); test: SPR, BIAcore T100, equilibrium KD
Procedure: as §1

Pig serum albumin = Pig serum albumin (pig, UniProt P08835 25-607); test: SPR, BIAcore T100, equilibrium KD
Procedure: as §1

Mini Pig serum albumin = Mini Pig serum albumin (mini pig); test: SPR, BIAcore T100, equilibrium KD
Procedure: as §1

Guinea Pig serum albumin = Guinea Pig serum albumin (guinea pig); test: SPR, BIAcore T100, equilibrium KD
Procedure: as §1

Rabbit serum albumin [4] = target: T4, Rabbit serum albumin (rabbit, UniProt P49065 25-608); test: SPR, BIAcore T100, equilibrium KD
Procedure: as §1

Rat serum albumin [5] = target: T3, Rat serum albumin; test: SPR, BIAcore T100, equilibrium KD
Procedure: as §1

Marmoset serum albumin = Marmoset serum albumin (marmoset); test: SPR, BIAcore T100, equilibrium KD
Procedure: as §1

Dog serum albumin = Dog serum albumin (dog, UniProt P49822 25-608); test: SPR, BIAcore T100, equilibrium KD
Procedure: as §1

Human serum albumin [6] = target: T2, Human serum albumin; test: SPR, BIAcore T100, equilibrium KD
Procedure: as §1

Mouse serum albumin [7] = target: T1, Mouse serum albumin; test: SPR, BIAcore T100, equilibrium KD
Procedure: as §1

Human serum albumin [8] = target: T2, Human serum albumin; test: SPR, BIAcore 3000, serum albumin coupled to CM5 chip; first of two independent measurements on different protein batches
Procedure: as §1

Human serum albumin [9] = target: T2, Human serum albumin; test: SPR, BIAcore 3000, serum albumin coupled to CM5 chip; second of two independent measurements; marked with an unexplained caret
Procedure: as §1

Sheep serum albumin = Sheep serum albumin (sheep, UniProt P14639 25-607); test: SPR, BIAcore T100, equilibrium KD
Procedure: as §1

Cynomolgus serum albumin [10] = target: T5, Cynomolgus serum albumin (Cynomolgus monkey, UniProt A2V9Z4 25-608); test: SPR, BIAcore T100, equilibrium KD
T5 construct: mature; purified native protein; coupled to CM5 BIAcore chip; also called cyno SA; CSA
Procedure: as §1

Cynomolgus serum albumin [11] = target: T5, Cynomolgus serum albumin; test: SPR, BIAcore 3000, serum albumin coupled to CM5 chip;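 note: Cross-reactivity of anti-serum albumin domain antibodies measured against human, cynomolgus monkey, rat and mouse serum albumin, binding kinetics giving Kd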
Procedure: as §1

Rat serum albumin [12] = target: T3, Rat serum albumin; test: SPR, BIAcore 3000, serum albumin coupled to CM5 chip; last of the independent measurements on different protein batches
Human serum albumin [13] = target: T2, Human serum albumin; test: SPR, BIAcore 3000, serum albumin coupled to CM5 chip; second of two independent measurements on different protein batches
Rabbit serum albumin [14] = target: T4, Rabbit serum albumin; test: SPR, BIAcore T100
Procedure: as §1

B1: DOM7r-31-14 (VHH)
VHH: EVQLLESGGGLVQPGGSLRLSCTASGFTFRHYRMGWVRQAPGKGLEWVSWIRPDGTFTYYADSVKGRFTISRDNSKNTLYLQMNSLRAEDTAVYYCAKSYMADRFDYWGQGTLVTVSS
notes: VH immunoglobulin single variable domain (dAb, AlbudAb), not a camelid VHH; tested with a myc tag; also called 7r31-14 (Parent); not shown: myc tag
Kd (Mouse serum albumin [1]): 6 nM and 12 nM and 14.2 nM

B3: DOM7r-31-100 (VHH)
VHH: B1 VHH with S7P, M101L, A102S, D103G, R104T
notes: VH immunoglobulin single variable domain (dAb, AlbudAb), not a camelid VHH; tested with a myc tag; not shown: myc tag
Kd (Rat serum albumin [3]): 40 nM and 41 nM | Kd (Human serum albumin [2]): 260 nM and 287 nM | Kd (Mouse serum albumin [1]): 5.4 nM and 12.7 nM

B5: DOM7r-31-102 (VHH)
VHH: B1 VHH with M101H, R104K
notes: as for B3
Kd (Rat serum albumin [3]): 67 nM and 30 nM | Kd (Human serum albumin [2]): 158 nM and 100 nM

B6: DOM7r-31-104 (VHH)
VHH: B1 VHH with D103G, R104T
notes: as for B3
Kd (Ferret serum albumin): 13.9 nM | Kd (Pig serum albumin): 415 nM | Kd (Mini Pig serum albumin): 412 nM | Kd (Guinea Pig serum albumin): 1630 nM | Kd (Rabbit serum albumin [4]): 1990 nM | Kd (Rat serum albumin [3]): 11.9 nM and 7.6 nM | Kd (Rat serum albumin [5]): 6.09 nM | Kd (Marmoset serum albumin): 4900 nM | Kd (Dog serum albumin): 8.26 nM | Kd (Human serum albumin [6]): 25.9 nM | Kd (Mouse serum albumin [7]): 59.5 nM | Kd (Human serum albumin [8]): 89.1 nM | Kd (Human serum albumin [9]): 81 nM

B7: DOM7r-92-100 (VHH)
VHH: EVQLLESGGGLVQPGGSLRLSCAASGFTFDTSSMLWVRQAPGKGLEWVSVIHQSGTPTYYADSVKGRFTISRDNSKNTLYLQMNSLRAEDTAVYYCAKFPSSRMKFDYWGQGTLVTVSS
notes: VH immunoglobulin single variable domain (dAb, AlbudAb), not a camelid VHH; tested with a myc tag; MALLS: dimer 10%, monomer 90%; also called DOM7r-92-100 myc; not shown: myc tag
Kd (Ferret serum albumin): 317 nM | Kd (Pig serum albumin): 191 nM | Kd (Sheep serum albumin): 569 nM | Kd (Mini Pig serum albumin): 308 nM | Kd (Rabbit serum albumin [4]): 136 nM | Kd (Mouse serum albumin [1]): 33 nM and 90 nM | Kd (Cynomolgus serum albumin [10]): 10.7 nM | Kd (Rat serum albumin [5]): 54.3 nM | Kd (Marmoset serum albumin): 7.37 nM | Kd (Dog serum albumin): 450 nM | Kd (Human serum albumin [6]): 3.56 nM | Kd (Mouse serum albumin [7]): 61.5 nM

B8: DOM7r-92-103 (VHH)
VHH: B7 VHH with S102E, R103G, K105N
notes: as for B3
Kd (Cynomolgus serum albumin [11]): 770 nM | Kd (Human serum albumin [2]): 160 nM and 123 nM

B9: DOM7r-92-101 (VHH)
VHH: B7 VHH with S102R, R103K, W109R
notes: as for B3
Kd (Cynomolgus serum albumin [11]): 120 nM | Kd (Rat serum albumin [3]): 23 nM and 16 nM | Kd (Human serum albumin [2]): 15 nM and 8 nM | Kd (Mouse serum albumin [1]): 56 nM

B10: DOM7r-92-102 (VHH)
VHH: B7 VHH with R103Q, M104F, K105R
notes: as for B3
Kd (Cynomolgus serum albumin [11]): 32 nM | Kd (Rat serum albumin [3]): 100 nM | Kd (Human serum albumin [2]): 28 nM | Kd (Mouse serum albumin [1]): 280 nM

B12: DOM7r-36-2 (VHH)
VHH: EVQLLESGGGLVQPGGSLRLSCAASGFTFNHYTMGWVRQAPGKGREWVSLIHPSGTVTYYADSVKGRFTISRDNSKNTLYLQMNSLRAEDTAVYYCAKWSSRAFDYWGQGTLVTVSS
notes: VH immunoglobulin single variable domain (dAb, AlbudAb), not a camelid VHH; tested with a myc tag; also called 7r36-2 (Parent); not shown: myc tag
Kd (Cynomolgus serum albumin [11]): 800 nM and 815 nM and 628 nM and 1500 nM | Kd (Rat serum albumin [3]): 467 nM and 330 nM and 244 nM and 229 nM | Kd (Human serum albumin [2]): 190 nM and 360 nM and 305 nM and 385 nM

B13: DOM7r-36-102 (VHH)
VHH: B12 VHH with S100F, S101Y, A103N
notes: as for B3
Kd (Cynomolgus serum albumin [11]): 430 nM | Kd (Rat serum albumin [3]): 100 nM | Kd (Mouse serum albumin [1]): 250 nM

B15: DOM7r-36-108 (VHH)
VHH: B12 VHH with I70T, W99L, S100E, S101G, A103S
notes: as for B3
Kd (Cynomolgus serum albumin [11]): 265 nM | Kd (Human serum albumin [2]): 82 nM and 67 nM | Kd (Mouse serum albumin [1]): 37.6 nM

B16: DOM7r-36-106 (VHH)
VHH: B12 VHH with W99F, S100R, S101G, A103G
notes: as for B3
Kd (Rat serum albumin [12]): 42 nM | Kd (Cynomolgus serum albumin [11]): 840 nM and 1100 nM | Kd (Rat serum albumin [3]): 75 nM | Kd (Human serum albumin [2]): 209 nM and 124 nM | Kd (Mouse serum albumin [1]): 113 nM and 73 nM

B17: DOM7r-36-104 (VHH)
VHH: B12 VHH with S100A, S101T, A103G
notes: as for B3
Kd (Human serum albumin [13]): 9 nM | Kd (Cynomolgus serum albumin [11]): 149 nM and 360 nM | Kd (Rat serum albumin [3]): 109 nM and 114 nM | Kd (Mouse serum albumin [1]): 184 nM and 313 nM | Kd (Human serum albumin [8]): 82 nM

The next lines start with results.

Kd (Human serum albumin [2]): 367 nM and 240 nM
B2: DOM7r-31-101 (VHH)
VHH: B1 VHH with M101Q, D103G, R104T
notes: as for B3

Kd (Rat serum albumin [3]): 40 nM | Kd (Human serum albumin [2]): 200 nM and 95 nM
B4: DOM7r-31-103 (VHH)
VHH: B1 VHH with T91A, A102S, D103G, R104T
notes: as for B3

Kd (Human serum albumin [2]): 260 nM and 420 nM
B11: DOM7r-92-4 (VHH)
VHH: B7 VHH with S102T, R103H, M104G
notes: VH immunoglobulin single variable domain (dAb, AlbudAb), not a camelid VHH; tested with a myc tag; also called 7r92-4 (Parent); not shown: myc tag

Kd (Cynomolgus serum albumin [11]): 72 nM | Kd (Rat serum albumin [3]): 183 nM | Kd (Human serum albumin [2]): 86 nM
B14: DOM7r-36-101 (VHH)
VHH: B12 VHH with S100F, S101L, R102K, A103S
notes: as for B3

Kd (Ferret serum albumin): 740 nM | Kd (Pig serum albumin): 818 nM | Kd (Sheep serum albumin): 637 nM | Kd (Mini Pig serum albumin): 895 nM | Kd (Cynomolgus serum albumin [11]): 127 nM | Kd (Rat serum albumin [3]): 97.3 nM and 209 nM | Kd (Human serum albumin [2]): 83.4 nM and 44.5 nM | Kd (Mouse serum albumin [1]): 466 nM | Kd (Cynomolgus serum albumin [10]): 21.4 nM | Kd (Rat serum albumin [5]): 99.2 nM | Kd (Marmoset serum albumin): 111 nM | Kd (Dog serum albumin): 719 nM | Kd (Human serum albumin [6]): 18.3 nM | Kd (Mouse serum albumin [7]): 143 nM
B18: DOM7r-36-107 (VHH)
VHH: B12 VHH with S100E, S101K, R102K, A103Y
notes: as for B3
binding result (Rabbit serum albumin [14]): no binding (tested: dilution series from 5 uM down to 39 nM)

Kd (Rat serum albumin [3]): 170 nM | Kd (Human serum albumin [2]): 284 nM and 313 nM
B19: DOM7r-36-105 (VHH)
VHH: B12 VHH with W99L, S100G, S101T, R102K, A103V
notes: as for B3

Kd (Cynomolgus serum albumin [11]): 87 nM and 230 nM | Kd (Rat serum albumin [3]): 105 nM and 70 nM | Kd (Human serum albumin [2]): 74 nM and 100 nM and 35 nM | Kd (Mouse serum albumin [1]): 100 nM
B20: DOM7r-36-100 (VHH)
VHH: B12 VHH with S100E, S101R, A103T
notes: as for B3

Kd (Cynomolgus serum albumin [11]): 94 nM | Kd (Rat serum albumin [3]): 100 nM and 57 nM | Kd (Human serum albumin [2]): 62 nM and 65 nM | Kd (Mouse serum albumin [1]): 270 nM
B21: DOM7r-36-103 (VHH)
VHH: B12 VHH with I70T, S100D, S101R, R102K, A103L, Y106H
notes: as for B3

Reference: US20130266567A1 (published 2013)
